# Experimental data taken from the nanobody polyreactivity screen of Harvey et al. (2022).
# Experiment: yeast display, Sf9 membrane polyspecificity reagent, FACS + sequencing; frameworks hold sequencing errors
# Method in brief: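 Using colony PCR, genes from sorted yeast display clones were amplified, then sequenced on MiSeq at 2 × 250 and filtered by CDR length. The clones had been stained with 10% biotinylated, detergent-solubilized Sf9 membrane reagent for 1 hour at 4 °C and sorted by FACS into low and high (top ~1%) gates on anti-HA and streptavidin fluorescence. Polyreactivity labels come from the gate of origin.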
row,Sequence,polyreactivity (PSR sort gate)
1,QVQLVESGGGLVQAGGSLRLSCAASGSIFVTYAMGWYRQAPGKERELVAAISTSGGSTYADSVKGRFTISRDNAKNTVYLQMNSLKPEDTAVYYCNADDPGYAVPWYWFKSDYWGQGTQVTVSS,low polyreactivity
2,QVQLVESGGGLVQAGGSLRLSCAASGSIFVTYAMGWYRQAPGKERELVAVITWGGGSTYYADSVKGRFTISRDNAKNTVYLQMNSLKPEDTAVYYCAKDSYYYRRDVTVDYWGQGTQVTVSS,low polyreactivity
3,QVQLVESGGGLVQAGGSLRLSCAASGSIFVTYDLGWYRQAAGKERELVAGISGSGSTNYADSVKGRFTISRDNAKNTVYLQMNSLKPEDTAVYYCNTDGLWSAEYDYWGQGTQVTVSS,low polyreactivity
4,QVQLVESGGGLVQAGGSLRLSCAASGSIFVVYAMGWYRQAPGKERELVASIRTGGSTNYADSVKGRFTISRDNAKNTVYLQMNSLKPEDTAVYYCAAASWNSNSHYYVARYYYWGHGTQVTVSS,high polyreactivity
5,QVQLVESGGGLVQAGGSLRLSCAASGSIFVVYGMGWYRQAPGKERELVAAISGGITNYADSVKGRFTISRDNAKNTVYLQMNSLKPEDTAVYYCATVDGAYQYTYDYWGQGTQVTVSS,low polyreactivity
6,QVQLVESGGGLVQAGGSLRLSCAASGSIFVVYSMGWYRQAPGKERELVAAISWGIGSTYYADSVKGRFTISRDNAKNTVYLQMNSLKPEDTALYYCAADTDIVLYDYWGQGTQVTVSS,low polyreactivity
7,QVQLVESGGGLVQAGGSLRLSCAASGSIFVWNAMGWYRQAPGKERELVAAISYTDGSTYYADSVKGRFTISRDNAKNTVYLQMNSLKPEDTAVYYCAAAITPSYTGSEYDYWGQGTQVTVSS,low polyreactivity
8,QVQLVESGGGLVQAGGSLRLSCAASGSIFVWNAMGWYRQAPGKERELVARIRYSSNTYYADSVKGRFTISRDNAKNTVYLQMNSLKPEDTAVYYCAAGSTRYAGWTYNYWGQGTQVTVSS,high polyreactivity
9,QVQLVESGGGLVQAGGSLRLSCAASGSIFVWYAMGWYRQAPGKERELVAAINWSGGRTYYADSVKGRFTISRDNAKNTVYLQMNSLKPEDTAVSYCNKVVPGYSAAKYDYWGQGTQVTVSS,high polyreactivity
10,QVQLVESGGGLVQAGGSLRLSCAASGSIFVWYAMGWYRQAPGKERELVAAISSSGDNTYYADSVKGRFTISRDNAKNTVYLQMNSLKPEDTAVYYCAAKSYWGQGTQVTVSS,high polyreactivity
11,QVQLVESGGGLVQAGGSLRLSCAASGSIFVYNTMGWYREAPGKERELVASITYSGGSTYYADSVKGRFTISRDNAKNTVYLQMNSLKPEDTAVYYCNTDDVALQWDWYPYPYDYWGQGTQVTVSS,low polyreactivity
12,QVQLVESGGGLVQAGGSLRLSCAASGSIFVYNVMGWYRQAPGKERELVAAINYSGVSTYYADSVKGRFTISRDNAKNTVYLQMNSLKPEDTAVYYCAAEYEFGHSSTPMDYWGQGTQVTVSS,high polyreactivity
13,QVQLVESGGGLVQAGGSLRLSCAASGSIFVYYAMGWYRQAPGKEREFVATISSSGGSTYYADSVKGRFTISRDNAKNTVYLQRNSLKPEDTAVYYCNRRYFFFYGHSFDYWGQGTQVTVSS,high polyreactivity
14,QVQLVESGGGLVQAGGSLRLSCAASGSIFVYYAMGWYRQAPGKERELVAAISKTGGRTYYADSVKGRFTISRDNAKNTVYLQMNSLKPEDTAVYYCAARYTIRYKRYDYWGQGTQVTVSS,high polyreactivity
15,QVQLVESGGGLVQAGGSLRLSCAASGSIFVYYGMGWYRQAPGKEWELVAAMSSGGSSHYADSVKGRFTISRVTAKNSVYLQMNSLKPEDTAVYYCPADGFFWQRSYTRYYYWGQGSQVTVSS,low polyreactivity
16,QVQLVESGGGLVQAGGSLRLSCAASGSIFVYYVMGWYRQAPGKERELVAAISSGGRTYYADSVKGRFTISRDNAKNTVYLQMNSLKPEDTAVYYCAARPIRPASEVNYWGQGTQVTVSS,low polyreactivity
17,QVQLVESGGGLVQAGGSLRLSCAASGSIFWANAMGWYRPAPGKERELVAAINFRATITYYPASVKGRFTISRDNAKNTVYLQMNSRKPEDTAVYYCAKAQAQRYSFYYWGQGTQVTVSS,high polyreactivity
18,QVQLVESGGGLVQAGGSLRLSCAASGSIFWFNAMGWYRQAPGKEREFVASISRSGGTTYYADSVKGRFTISRDTAKNTVYLQMYSLKPEDTAVYYCNARAYGNGLGTGYFGKHRYDYWGQGTQVTVSS,low polyreactivity
19,QVQLVESGGGLVQAGGSLRLSCAASGSIFWFNAMGWYRQAPGKERELVAAINSSGGRTYYADSVKGRFTISRDNAKNTVYLQMNSLKPEDTAVYYCNALLWGNPASYGYWGQGTQVTVSS,high polyreactivity
20,QVQLVESGGGLVQAGGSLRLSCAASGSIFWFNAMGWYRQAPGKERELVAAITITGGSTYYADSVKGRFTISRDNAKNTVYLQMNSLKPEDTAVYYCAAGTGSRDDYWGQGTQVTVSS,high polyreactivity
21,QVQLVESGGGLVQAGGSLRLSCAASGSIFWGNAMGWYRQAPGKERELVAAIRRGTSTYYADSVKGRFTISRDNAKNTVYLQMNSLKPEDTAVYYCAAEGWTTPTPTSDDNQWWYDYWGQGTQVTVSS,high polyreactivity
22,QVQLVESGGGLVQAGGSLRLSCAASGSIFWGNDMGWYRQAPGKERELVAGIRNSGTSTYYADSVKGRFTISRDHAKNTVYLQMNSLKPEDTAVYYCAAADGRQYSRYYWRGHDYWGQGTQVTVSS,low polyreactivity

row,Sequence,polyreactivity (PSR sort gate)
1,QVQLVESGGGLVQAGGSLRLSCAASGSIFWGTAMGWERQAPGKERELVAAISWSGGSTYYADSVKGRFTISRDNAKNTVDLQMHSLKPEDTAVYYCAARFKRVGSIPYYYWGQGTQVTVSS,high polyreactivity
2,QVQLVESGGGLVQAGGSLRLSCAASGSIFWGYAMGWYRQAPGKERELVAAISSSGGNTYYADSVKGRFTISRDNAKNTVYLQMNSLKPEDTAVYYCAATPEFYGGKITDVYSQYGYWGQGSQVTVSS,low polyreactivity
3,QVQLVESGGGLVQAGGSLRLSCAASGSIFWINAMGWCRQAPGKEREFVADIDVSGGSTYYADSVKGRFTISRDNAKNTVYLQMNSLKPEDTAVYYCAADDYWAYLYYKTSEYYYWGQGTQVTVSS,low polyreactivity
4,QVQLVESGGGLVQAGGSLRLSCAASGSIFWLYAMGWYRQAPGKERELVATISSTGSTDYADSVKGRFTISRDNAKNTVYLQMNSLKPEDTAVYYCATDVFYSIFTPSPFEYDYWGQGTQVTVSS,high polyreactivity
5,QVQLVESGGGLVQAGGSLRLSCAASGSIFWNNAMGWSRQAPGKERELVAAISKSGTRTYYADSVKGRFTISRDNAKNTVYLQMNSLKPEDTAVYYCNALLRDSGTYAGDDYWGQGTQVTVSS,high polyreactivity
6,QVQLVESGGGLVQAGGSLRLSCAASGSIFWNNAMGWYRQAPGKEREFVATITWSGDSTYYADSVKGRFTISRDNAKNTVYLQMNSLKPEDTAVYYCAALLDYSVADLYSHHVSRYYYWGQGTQVTVSS,low polyreactivity
7,QVQLVESGGGLVQAGGSLRLSCAASGSIFWQNTMGWYRQAPGKERELVAAISWSGGRTYYADSVKGRFTISRDNAKNTVSLPMNSLKPEDTAVYYCNKLLSQRRYHSEMDYWGQGTQVTVSS,high polyreactivity
8,QVQLVESGGGLVQAGGSLRLSCAASGSIFWRNAMGWYRQAPGKERELVAAITSGGTTNYADSVKGRFTISRDNAKNTVYLQMNSLKPEDTAVYYCATGASYLRRYDHPHSDVDYWGQGTQVTVSS,low polyreactivity
9,QVQLVESGGGLVQAGGSLRLSCAASGSIFWSNAMGWYRQAAGKERELVASITRSGGSTYYADSVKGRFTISRDNAKNTVYLQMNSLKPEDTAVYYCAARTRGSSYHFDYWGQGTQVTVSS,high polyreactivity
10,QVQLVESGGGLVQAGGSLRLSCAASGSIFWSNAMGWYRQAPGKEREFVAAITWSGDNTYYADSVKGRFTISRDNAKNTVYLQMNSLKPEDTAVYYCNTEWGLFYDWTVLHIYLHGYYYWGQGTQVTVSS,low polyreactivity
11,QVQLVESGGGLVQAGGSLRLSCAASGSIFWSNSMGWDRQAPGKERELDAAISQDGGSTNYADSVKGRFTISRDNAKNTVYLQMTSQKPEDTAVYYCAVKYWSYEPPSYSIEYGYWGQGTQVTVSS,low polyreactivity
12,QVQLVESGGGLVQAGGSLRLSCAASGSIFWSYAMGWYRQAPGKEREFVAAIRGRGGNTYADSVKGRFTISRDNAKNTVYLQMNSLKPEDTAVYYCAAPLLRDLRSPYSYNYWGQGTQVTVSS,low polyreactivity
13,QVQLVESGGGLVQAGGSLRLSCAASGSIFWSYDMGWYRQAPGKERELVPTITSGDSTYYADSVKGRFTISRDNAKNTVYLQMNSLKPEDTAVYYCAAGTYYRRTYWHREYDYWGQGTQVTVSS,low polyreactivity
14,QVQLVESGGGLVQAGGSLRLSCAASGSIFWSYGMGWYIQAPGKERELVASTRYADSVKERFTISRDNAKNTVYLLMNSLKPEDTAVYYCAADVWTLDPDEYDYWGQGTQVTVSS,low polyreactivity
15,QVQLVESGGGLVQAGGSLRLSCAASGSIFWSYGMGWYRQAPGKERELVASTRYADSVKGRFTISRDNAKNTVYLQMNSLKPEDTAVYYCNVRYYGYRFGDDYWGQGTQVTVSS,low polyreactivity
16,QVQLVESGGGLVQAGGSLRLSCAASGSIFWTNAMGCYIQAPGKERELVAAITGGGTTYYADSVKGRFTISRDNAKNTVYLQMNSLKPEDTAVVYTVSSAQYDYWGQGTQVTVSS,low polyreactivity
17,QVQLVESGGGLVQAGGSLRLSCAASGSIFWTYAMGWYRQAPGKERELVAAITTGGSTYYADSVKGRFTISRDNAKNTVYLQMNSLKPEDTAVYYCAVDHLTRSGDGEYWGQGTQVTVSS,high polyreactivity
18,QVQLVESGGGLVQAGGSLRLSCAASGSIFWWNAMGWYRQAPGKERELVGAITVSGSSTHYADSVKGRFTISRDNAKNTVYLQMNSMKPEDTAVYYWGQGTQVTVSS,low polyreactivity
19,QVQLVESGGGLVQAGGSLRLSCAASGSIFWYNAMAWYRQAPGKERELVAAITGTGDRTYYADSVKGRFTISRDNAKNSVYLQMNSLKPEDSAVYYCAAAYGAYYPWGYDYWGQGTQVTVSS,low polyreactivity
20,QVQLVESGGGLVQAGGSLRLSCAASGSIFWYNAMGWYRQAPGKEREFVATITNGTTTNYADSVKGRFTISCDNAKNTVYLQMNSLKPEDTAVYFCAVTGVYVKYDYWGQGTHVTVSS,low polyreactivity
21,QVQLVESGGGLVQAGGSLRLSCAASGSIFWYYAMGWYRQAPGKERELVAAISSGGSTNYADSVKGRFTISRDNAKNTVYLQMNSLKPEDTAVYYCAAGYAVSWYSAYDSGYWGQCTQVTVSS,low polyreactivity
